In patent publication US20250270314A1 (TAVOTEK BIOTECH SUZHOU, published 2025):

T1: human CDH17 on AGS gastric cancer cells and AsPC-1 pancreatic cancer cells (human, UniProt Q12864 23-832)
T1 construct: Native CDH17 on the surface of cancer cell lines; also called CDH17 expressing AGS cells; CDH17 expressing AsPC-1 pancreatic cancer cells
T1 sequence: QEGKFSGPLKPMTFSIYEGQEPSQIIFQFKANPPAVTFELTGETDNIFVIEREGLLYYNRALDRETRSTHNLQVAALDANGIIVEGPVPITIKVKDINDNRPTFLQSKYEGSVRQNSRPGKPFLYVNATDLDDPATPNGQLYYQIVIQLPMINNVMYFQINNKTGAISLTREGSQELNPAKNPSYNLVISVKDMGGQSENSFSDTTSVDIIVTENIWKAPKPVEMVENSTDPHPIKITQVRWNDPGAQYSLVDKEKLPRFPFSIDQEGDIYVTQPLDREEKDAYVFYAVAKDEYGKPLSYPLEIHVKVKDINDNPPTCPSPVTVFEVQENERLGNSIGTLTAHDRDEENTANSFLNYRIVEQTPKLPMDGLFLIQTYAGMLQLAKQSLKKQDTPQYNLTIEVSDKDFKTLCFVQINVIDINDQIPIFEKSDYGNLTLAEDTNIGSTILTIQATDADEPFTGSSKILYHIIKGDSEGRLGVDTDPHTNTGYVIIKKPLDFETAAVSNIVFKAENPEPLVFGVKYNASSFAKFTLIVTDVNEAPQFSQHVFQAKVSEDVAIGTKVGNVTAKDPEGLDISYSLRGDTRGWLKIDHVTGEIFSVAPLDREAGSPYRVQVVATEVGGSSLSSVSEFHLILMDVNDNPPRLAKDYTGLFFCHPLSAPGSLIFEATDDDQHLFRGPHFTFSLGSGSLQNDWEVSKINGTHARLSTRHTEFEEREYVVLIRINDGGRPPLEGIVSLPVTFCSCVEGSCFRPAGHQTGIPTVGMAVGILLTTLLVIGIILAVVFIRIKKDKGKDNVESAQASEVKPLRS


Target: T1, human CDH17 on AGS gastric cancer cells …
Assay: flow cytometry on AGS and AsPC-1 cells

Binder | binding result
VHO v362 (VHH, Variable-heavy-only (VHO) single domain; also called TS00362) VHH: EVQLLESGGGLVQPGGSLRLSCAASGFTFSDYWMSWVRQAPGKGLEWVSNISSDGGSTYYADSVKGRFTISRDNSKNTLYLQMNSLRAEDTAVYYCAKTTTWLLSQHDKTSFDYWGQGTLVTVSS | binds
VHO v357 (VHH, Variable-heavy-only (VHO) single domain; also called TS00357) VHH: EVQLLESGGGLVQPGGSLRLSCAASGFTFSDYWMSWVRQAPGKGLEWVSNISSSGSSTYYADSVKGRFTISRDNSKNTLYLQMNSLRAEDTAVYYCAKTSDWLSGKIDEHFDYWGQGTLVTVSS | binds
VHO v369 (VHH, Variable-heavy-only (VHO) single domain; also called TS00369) VHH: EVQLLESGGGLVQPGGSLRLSCAASGFTFSDYWMSWVRQAPGKGLEWVSNISGSGSSTYYADSVKGRFTISRDNSKNTLYLQMNSLRAEDTAVYYCAKTSQWLARERSSEFDYWGQGTLVTVSS | binds
VHO v370 (VHH, Variable-heavy-only (VHO) single domain; also called TS00370) VHH: EVQLLESGGGLVQPGGSLRLSCAASGFTFSNYWMSWVRQAPGKGLEWVSNISSDGGSTYYADSVKGRFTISRDNSKNTLYLQMNSLRAEDTAVYYCAKTTTWLTYRQGHGFDYWGQGTLVTVSS | binds
VHO v355 (VHH, Variable-heavy-only (VHO) single domain; also called TS00355) VHH: EVQLLESGGGLVQPGGSLRLSCAASGFTFSDYWMSWVRQAPGKGLEWVSAISGDGSSTYYADSVKGRFTISRDNSKNTLYLQMNSLRAEDTAVYYCAKETWGTYDFDYWGQGTLVTVSS | binds
VHO v345 (VHH, Variable-heavy-only (VHO) single domain; also called TS00345) VHH: EVQLLESGGGLVQPGGSLRLSCAASGFTFSNYWMSWVRQAPGKGLEWVSAIKQDGSSTYYADSVKGRFTISRDNSKNTLYLQMNSLRAEDTAVYYCAKEEWRDYDFDYWGQGTLVTVSS | binds
VHO v343 (VHH, Variable-heavy-only (VHO) single domain; also called TS00343) VHH: EVQLLESGGGLVQPGGSLRLSCAASGFTFSDYWMSWVRQAPGKGLEWVSAIKGDGSSTYYADSVKGRFTISRDNSKNTLYLQMNSLRAEDTAVYYCAKEEWRPYSFDYWGQGTLVTVSS | binds
VHO v349 (VHH, Variable-heavy-only (VHO) single domain; also called TS00349) VHH: EVQLLESGGGLVQPGGSLRLSCAASGFTFSDYWMHWVRQAPGKGLEWVSAIWSSGGSTYYADSVKGRFTISRDNSKNTLYLQMNSLRAEDTAVYYCAKSPTLYDDFDYWGQGTLVTVSS | binds
VHO v352 (VHH, Variable-heavy-only (VHO) single domain; also called TS00352) VHH: EVQLLESGGGLVQPGGSLRLSCAASGFTFSSYWMHWVRQAPGKGLEWVSAIWSSGGSTYYADSVKGRFTISRDNSKNTLYLQMNSLRAEDTAVYYCAKSKSLHEDFDYWGQGTLVTVSS | binds
VHO v342 (VHH, Variable-heavy-only (VHO) single domain; also called TS00342) VHH: EVQLLESGGGLVQPGGSLRLSCAASGFTFSDYWMSWVRQAPGKGLEWVSNISQSGGSTYYADSVKGRFTISRDNSKNTLYLQMNSLRAEDTAVYYCAKDTPGPRWDFDYWGQGTLVTVSS | binds
VHO v346 (VHH, Variable-heavy-only (VHO) single domain; also called TS00346) VHH: EVQLLESGGGLVQPGGSLRLSCAASGFTFSDYWMSWVRQAPGKGLEWVSAIKQDGGSTYYADSVKGRFTISRDNSKNTLYLQMNSLRAEDTAVYYCAKETWEAHWDFDYWGQGTLVTVSS | binds
VHO v341 (VHH, Variable-heavy-only (VHO) single domain; also called TS00341) VHH: EVQLLESGGGLVQPGGSLRLSCAASGFTFSTYWMSWVRQAPGKGLEWVSVINQDGSSTYYADSVKGRFTISRDNSKNTLYLQMNSLRAEDTAVYYCAKDELKSEWDFDYWGQGTLVTVSS | binds
VHO v365 (VHH, Variable-heavy-only (VHO) single domain; also called TS00365) VHH: EVQLLESGGGLVQPGGSLRLSCAASGFTFSDYWMSWVRQAPGKGLEWVSNINQDGGSTYYADSVKGRFTISRDNSKNTLYLQMNSLRAEDTAVYYCAKTSDWLLVQFDYWGQGTLVTVSS | binds
